Data on five sequences can be found in the Immune Epitope Database (IEDB).

Assay [1] deals with HLA-B*57:01. As to the kind of experiment: IEDB peptide-MHC binding, purified MHC/competitive/fluorescence; filed as Kd, often an IC50 or EC50 that approximates it; ≥ and ≤ were set here for values at or beyond the usual limits of such assays.
Assay [2] has as its target HLA-B*27:03. Described as above.
The target in assay [3] is HLA-B*18:01. Described as above.
Assay [4] addresses HLA-B*15:17. The assay is described as above.
Assay [5] has as its target HLA-A*02:16. The assay is described as above. To be noted: source organism: Vibrio parahaemolyticus AQ3810.
The target in assay [6] is HLA-B*51:01. The assay is described as above.
Assay [7] addresses HLA-A*03:01. The assay is described as above.
In assay [8] the target is HLA-A*02:01. Described as above.
The target in assay [9] is HLA-A*02:12. The assay is described as above.
In assay [10] the target is HLA-B*39:01. The assay is described as above.
Assay [11] addresses HLA-A*02:03. Described as above.
Assay [12] deals with HLA-A*23:01. The assay is described as above.
The target of assay [13] is HLA-A*02:19. Described as above.
Assay [14] concerns the target HLA-A*24:03. The assay is described as above.
The target in assay [15] is HLA-A*29:02. The description is as above.
Assay [16] concerns the target HLA-B*46:01. The assay is described as above.
Assay [17] concerns the target HLA-B*15:01. Described as above.
The target of assay [18] is HLA-A*26:01. Described as above.
In assay [19] the target is HLA-A*69:01. The description is as above.
Assay [20] addresses HLA-A*02:16. The assay is described as follows: IEDB peptide-MHC binding, purified MHC/direct/fluorescence; filed as Kd, often an IC50 or EC50 that approximates it; ≥ and ≤ were set here for values at or beyond the usual limits of such assays.
Assay [21] concerns the target HLA-A*68:02. The description is as above.
In assay [22] the target is HLA-A*03:01. The description is as above.
The target in assay [23] is HLA-A*02:11. The assay is described as above.
For assay [24], the target named is HLA-A*02:12. The description is as above.
The target in assay [25] is HLA-A*02:03. Described as above.
Assay [26] deals with HLA-A*23:01. The description is as above.
Assay [27] deals with HLA-B*07:02. The assay is described as above.
The target in assay [28] is HLA-A*02:19. Described as above.
Assay [29] deals with HLA-A*24:03. Described as above.
Assay [30] deals with HLA-A*29:02. The assay is described as above.
The target in assay [31] is HLA-B*15:01. The description is as above. To be noted: source organism: Sudan ebolavirus - Maleo (1979).
In assay [32] the target is HLA-A*02:11. As to the kind of experiment: IEDB peptide-MHC binding, purified MHC/competitive/fluorescence; filed as Kd, often an IC50 or EC50 that approximates it; ≥ and ≤ were set here for values at or beyond the usual limits of such assays. The following applies: source organism: Vibrio vulnificus CMCP6.
Setting [33] is: source organism: Vibrio parahaemolyticus AQ3810.
[34] abbreviates: source organism: Reston ebolavirus.
Setting [35] is: source organism: Zaire ebolavirus.
The mark [36] stands for this setting: source organism: Ravn virus - Ravn, Kenya, 1987.
Setting [37] is: source organism: Vibrio vulnificus CMCP6.

As to KVGYFQHGA, the Kd in [1] (setting [33]), in assay [2] (setting [33]), in assay [3] (setting [33]), in assay [4] (setting [33]), in [5] and in assay [6] (setting [33]) was not below 20 µM in each case. The Kd in assay [7] (setting [33]) was not below 20 µM; in [8] (setting [33]), not below 20 µM; in assay [9] (setting [33]) it was 0.171 µM; in [10] (setting [33]), not below 20 µM; in [11] (setting [33]), not below 20 µM; in [12] (setting [33]), not below 20 µM. The Kd in assay [13] (setting [33]), in assay [14] (setting [33]), in assay [15] (setting [33]), in assay [16] (setting [33]), in assay [17] (setting [33]) and in [18] (setting [33]) was not below 20 µM throughout.
Turning to LPRERFRKT, the Kd in assay [1] (setting [34]), in assay [2] (setting [34]), in assay [3] (setting [34]), in assay [4] (setting [34]), in [19] (setting [34]) and in assay [6] (setting [34]) was not below 20 µM throughout. Also, the Kd in assay [8] (setting [34]), in assay [10] (setting [34]), in [16] (setting [34]), in [17] (setting [34]), in assay [18] (setting [34]) and in assay [20] (setting [34]) was not below 20 µM throughout. In addition, the Kd in assay [21] (setting [34]), in assay [22] (setting [34]), in assay [23] (setting [34]), in assay [24] (setting [34]), in assay [25] (setting [34]) and in [26] (setting [34]) was not below 20 µM in each case. The Kd in assay [27] (source organism: Tai Forest virus - Cote d'Ivoire, Cote d'Ivoire, 1994) is 0.179 µM; in assay [28] (setting [34]), not below 20 µM; in assay [29] (setting [34]), not below 20 µM; in assay [30] (setting [34]), not below 20 µM.
In the case of PQVLGGLSF, the Kd in assay [1] (setting [35]), in assay [2] (setting [35]), in [3] (setting [35]), in assay [4] (setting [35]), in assay [19] (setting [35]) and in assay [6] (setting [35]) was not below 20 µM throughout. In addition, the Kd in [8] (setting [35]), in assay [10] (setting [35]), in assay [16] (setting [35]), in assay [18] (setting [35]), in [20] (setting [36]) and in assay [21] (setting [36]) was not below 20 µM in each case. The Kd in assay [22] (setting [36]), in assay [23] (setting [36]), in [24] (setting [36]), in assay [25] (setting [36]), in [26] (setting [36]) and in assay [28] (setting [36]) was not below 20 µM in each case. The figures for the Kd in assay [29] (setting [36]) and in assay [31] were not below 20 µM and 0.475 µM, respectively.
As to TPSHYSGNI, the dissociation constant Kd in assay [1] (setting [35]), in assay [2] (setting [35]), in [3] (setting [35]), in assay [4] (setting [35]), in assay [19] (setting [35]) and in assay [6] (setting [35]) was not below 20 µM throughout. Also, the Kd in assay [8] (setting [35]), in assay [10] (setting [35]), in [16] (setting [35]), in [17] (setting [35]), in [18] (setting [35]) and in [20] (setting [35]) was not below 20 µM each time. In addition, the Kd in assay [21] (setting [35]), in assay [22] (setting [35]), in assay [23] (setting [35]), in [24] (setting [35]), in assay [25] (setting [35]) and in assay [26] (setting [35]) was not below 20 µM in each case. Further, the Kd in [27] (source organism: Sudan ebolavirus - Maleo (1979)) is 0.442 µM; in assay [28] (setting [35]), not below 20 µM; in [29] (setting [35]), not below 20 µM; in [30] (setting [35]), not below 20 µM.
Regarding WLAGFEPSE, the Kd in assay [1] (setting [37]), in assay [2] (setting [37]), in assay [3] (setting [37]), in [6] (setting [37]), in [7] (setting [37]) and in assay [32] was not below 20 µM each time. In addition, the Kd in assay [8] (setting [37]) was not below 20 µM; in assay [9] (setting [37]), 0.453 µM; in assay [10] (setting [37]), not below 20 µM; in assay [11] (setting [37]), not below 20 µM; in assay [12] (setting [37]) it was not below 20 µM; in assay [13] (setting [37]) it was not below 20 µM. In addition, the Kd in assay [14] (setting [37]), in assay [15] (setting [37]), in assay [16] (setting [37]), in assay [17] (setting [37]) and in assay [18] (setting [37]) was not below 20 µM throughout.
